Where a chain is given by its changes, count along the chain named.

Data set [1] has as its target T1, SloR (Streptococcus mutans UA159?) (UniProt I6L923).
T1 sequence: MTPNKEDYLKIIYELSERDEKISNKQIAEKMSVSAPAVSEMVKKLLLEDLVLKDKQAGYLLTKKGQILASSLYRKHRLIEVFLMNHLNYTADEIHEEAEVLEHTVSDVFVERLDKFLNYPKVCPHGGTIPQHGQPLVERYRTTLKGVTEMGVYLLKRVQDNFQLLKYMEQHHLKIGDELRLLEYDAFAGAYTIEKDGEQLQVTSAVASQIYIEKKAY
Put plainly: EMSA. As to conditions: BLI: PBS pH 7.2, 0.1% Tween-20, 100 uM MnCl2, 30 C; EMSA: 60-200 nM SloR, 16 uL, 12% native gel, buffer as cited; footprinting: 8.4 mM NaH2PO4, 11.6 mM …. (In general: Mobility shift assays separate free from complexed probe on a gel.)

In data set [2] the target is T1, SloR (Streptococcus mutans UA159?). The experiment in a line: footprinting. As to conditions: BLI: PBS pH 7.2, 0.1% Tween-20, 100 uM MnCl2, 30 C; EMSA: 60-200 nM SloR, 16 uL, 12% native gel, buffer as cited; footprinting: 8.4 mM NaH2PO4, 11.6 mM ….
Data set [3] concerns the target T2, SloR (UniProt I6L923 1-217).
T2 sequence: T1 sequence
Put plainly: EMSA; BLI: PBS pH 7.2, 0.1% Tween-20, 100 uM MnCl2, 30 C; EMSA: 60-200 nM SloR, 16 uL, 12% native gel, buffer as cited; footprinting: 8.4 mM NaH2PO4, 11.6 mM Na2HPO4, 50 mM NaCl, 5 mM MgCl2, 10 ug/mL BSA, 200 ug/mL salmon sperm DNA, 7.5 uM MnCl2, 30 C. As to conditions: protein: recombinant; tags: native (untagged) SloR purified for EMSA and footprinting; chain copies: 2; label: 5' 32P; blunt.

For data set [4], the target named is T3, SloR (BLI preparation) (UniProt I6L923 1-217).
T3 sequence: T1 sequence
The experiment in a line: BLI; 100 uM MnCl2; BLI: PBS pH 7.2, 0.1% Tween-20, 100 uM MnCl2, 30 C; EMSA: 60-200 nM SloR, 16 uL, 12% native gel, buffer as cited; footprinting: 8.4 mM NaH2PO4, 11.6 mM Na2HPO4, 50 mM NaCl, 5 mM MgCl2, 10 ug/mL BSA, 200 ug/mL salmon sperm DNA, 7.5 uM MnCl2, 30 C. As to conditions: protein: recombinant; tags: immobilized on NTA biosensor; chain copies: 2; blunt.

The target of data set [5] is T3, SloR (BLI preparation). Put plainly: BLI; 100 uM MnCl2; Kd only in figure; BLI: PBS pH 7.2, 0.1% Tween-20, 100 uM MnCl2, 30 C; EMSA: 60-200 nM SloR, 16 uL, 12% native gel, buffer as cited; footprinting: 8.4 mM NaH2PO4, 11.6 mM Na2HPO4, 50 mM NaCl, 5 mM MgCl2, 10 ug/mL BSA, 200 ug/mL salmon sperm DNA, 7.5 uM MnCl2, 30 C. As to conditions: protein: recombinant; tags: immobilized on NTA biosensor; chain copies: 2; label: 5' 32P in EMSA; blunt.

Data set [6] deals with T2, SloR. The experiment in a line: EMSA; 60 nM SloR; BLI: PBS pH 7.2, 0.1% Tween-20, 100 uM MnCl2, 30 C; EMSA: 60-200 nM SloR, 16 uL, 12% native gel, buffer as cited; footprinting: 8.4 mM NaH2PO4, 11.6 mM Na2HPO4, 50 mM NaCl, 5 mM MgCl2, 10 ug/mL BSA, 200 ug/mL salmon sperm DNA, 7.5 uM MnCl2, 30 C. Conditions: protein: recombinant, tags: native (untagged) SloR purified for EMSA and footprinting, chain copies: 2, blunt.

Data set [7] has as its target T3, SloR (BLI preparation). Put plainly: BLI; 100 uM MnCl2; DNA up to 20 uM; BLI: PBS pH 7.2, 0.1% Tween-20, 100 uM MnCl2, 30 C; EMSA: 60-200 nM SloR, 16 uL, 12% native gel, buffer as cited; footprinting: 8.4 mM NaH2PO4, 11.6 mM Na2HPO4, 50 mM NaCl, 5 mM MgCl2, 10 ug/mL BSA, 200 ug/mL salmon sperm DNA, 7.5 uM MnCl2, 30 C. Conditions: protein: recombinant; tags: immobilized on NTA biosensor; chain copies: 2; blunt.

Data set [8] concerns the target T2, SloR. Put plainly: EMSA; 60 nM SloR; two band shifts, intensity 1.3 and 0.03 AU; BLI: PBS pH 7.2, 0.1% Tween-20, 100 uM MnCl2, 30 C; EMSA: 60-200 nM SloR, 16 uL, 12% native gel, buffer as cited; footprinting: 8.4 mM NaH2PO4, 11.6 mM Na2HPO4, 50 mM NaCl, 5 mM MgCl2, 10 ug/mL BSA, 200 ug/mL salmon sperm DNA, 7.5 uM MnCl2, 30 C. Conditions: protein: recombinant; tags: native (untagged) SloR purified for EMSA and footprinting; chain copies: 2; label: 5' 32P; blunt.

On to “GCATACTTAACATATGCTGTTTTTTATGCTATAATGCAATTAACCCAATTATATTAGAAAAGAGATTTTCAAAATGAAAACTCATCCAAAAAAGCAATCACTCAGCGAGGT (double strand) [mntH 111-bp probe (-75 to +36 of coding)]”, for which, in data set [1], the binding result is on record as “no binding”. “GATTGTTTAGACATCTCTGATTAATTTTCCATAATCTCTATTGTGTTTTATACTGTCAGTAATTCTTACAAACTCTTTATATTCAGTAATAATAGGTACACCTTTTTTAATTTTTAAGCATACTTAACATATGCTGTTTTTTATGCTATAATGCAATTAACCCAATTATATTAGAAAAGAGATTTTCAAAATGAAAACTCATCCAAAAAAGCAATCACTCAGCGAGGTCAATCAGAGCGTTCGTGTTCCTAAAAATGCCTCTTTTTTAACAACTTTAAGAGCTTTTTTAGG (double strand) [mntH 291-bp footprint amplicon]”: the binding result in data set [2] is on record as “binds”.

B1: mntH.22.SRE1.CC (left IR mutant) (dsDNA)
DNA 1: ATTTTTCCGCATACTTAACATA
DNA 2: TATGTTAAGTATGCGGAAAAAT
In the case of B1, the binding result in the data set with SloR [3] is on record as “no binding”.

B2: mntH 159-bp promoter probe (dsDNA)
DNA 1: TCTCTATTGTGTTTTATACTGTCAGTAATTCTTACAAACTCTTTATATTCAGTAATAATAGGTACACCTTTTTTAATTTTTAAGCATACTTAACATATGCTGTTTTTTATGCTATAATGCAATTAACCCAATTATATTAGAAAAGAGATTTTCAAAATG
DNA 2: CATTTTGAAAATCTCTTTTCTAATATAATTGGGTTAATTGCATTATAGCATAAAAAACAGCATATGTTAAGTATGCTTAAAAATTAAAAAAGGTGTACCTATTATTACTGAATATAAAGAGTTTGTAAGAATTACTGACAGTATAAAACACAATAGAGA
Turning to B2, the binding result in the data set with SloR [3] is reported as “binds”.

B3: sloA.72.WT (dsDNA)
DNA 1: AGCCTTAATTAATGTAGATTATATTTTTAATTGAACTGAATTAAAAATATAATCCAATATAATGAATATTTT
DNA 2: AAAATATTCATTATATTGGATTATATTTTTAATTCAGTTCAATTAAAAATATAATCTACATTAATTAAGGCT
As to B3, the Kd with SloR (BLI preparation) [4] is about 31 nM.

B4: mntH.22.SRE1.WT (dsDNA)
DNA 1: ATTTTTAAGCATACTTAACATA
DNA 2: TATGTTAAGTATGCTTAAAAAT
As to B4, the binding result with SloR (BLI preparation) [5] and with SloR [6] (label: 5' 32P in EMSA) was “binds” throughout.

B5: mntH 100-bp deletion amplicon (dsDNA)
DNA 1: AGGTACACCTTTTTTAATTTTTAAGCATACTTAACATATGCTGTTTTTTATGCTATAATGCAATTAACCCAATTATATTAGAAAAGAGATTTTCAAAATG
DNA 2: CATTTTGAAAATCTCTTTTCTAATATAATTGGGTTAATTGCATTATAGCATAAAAAACAGCATATGTTAAGTATGCTTAAAAATTAAAAAAGGTGTACCT
Consider B5, for which the binding result with SloR [3] is “binds”.

B6: mntH.22.SRE1.10IR (SRE1 spacer with -10 SRE IRs) (dsDNA)
DNA 1: GCAATTAAGCATACTATATTAG
DNA 2: CTAATATAGTATGCTTAATTGC
For the molecule B6, the binding result with SloR [3] is “no binding”.

B7: mntH.22.SRE1.w10.spcr (spacer variant) (dsDNA)
DNA 1: ATTTTTAACCCAATTTAACATA
DNA 2: TATGTTAAATTGGGTTAAAAAT
Turning to B7, the binding result in the data set with SloR [3] was “no binding”.

B8: mntH.22.SRE2.WT (dsDNA)
DNA 1: AATAATAGGTACACCTTTTTTA
DNA 2: TAAAAAAGGTGTACCTATTATT
Turning to B8, the binding result with SloR (BLI preparation) [7] is on record as “no binding”.

B9: mntH.100.WT (dsDNA)
DNA 1: TACTGTCAGTAATTCTTACAAACTCTTTATATTCAGTAATAATAGGTACACCTTTTTTAATTTTTAAGCATACTTAACATATGCTGTTTTTTATGCTATA
DNA 2: TATAGCATAAAAAACAGCATATGTTAAGTATGCTTAAAAATTAAAAAAGGTGTACCTATTATTACTGAATATAAAGAGTTTGTAAGAATTACTGACAGTA
On to B9, for which the binding result with SloR [8] is reported as “binds”.

B10: mntH.100.CC.CT (SRE1+SRE2 mutant) (dsDNA)
DNA 1: B9 DNA 1 with A44C, G45T, A66C, A67C
DNA 2: B9 DNA 2 with T34G, T35G, C56A, T57G
For the molecule B10, the binding result in the data set with SloR [6] (label: 5' 32P) is “no binding”.

B11: mntH.90.WT (dsDNA)
DNA 1: GTAATTCTTACAAACTCTTTATATTCAGTAATAATAGGTACACCTTTTTTAATTTTTAAGCATACTTAACATATGCTGTTTTTTATGCTA
DNA 2: TAGCATAAAAAACAGCATATGTTAAGTATGCTTAAAAATTAAAAAAGGTGTACCTATTATTACTGAATATAAAGAGTTTGTAAGAATTAC
Regarding B11, in the data set with SloR (BLI preparation) [4], the Kd is about 33 nM.

As a reminder, the Kd is the constant that tells how readily two partners part at equilibrium.

The values above are taken from PMC12096823, “SloR-SRE binding to the S. mutans mntH promoter is cooperative”.
